From US20040248181A1, “Method and kit for enhancing extraction and quantification of target molecules using microdialysis” (priority 2003, published 2004)

experiment: Microdialysis sampling of cytokines across CMA-20 probe (10 mm polyethersulfone membrane, 100 kD MWCO) with multiplexed cytokine bead array / flow cytometry readout; assay type: physicochemical; conditions: control perfusion fluid without microspheres; flow rate 1.5 μl/min; quiescent phosphate buffer pH 7.4 containing 5000 pg/ml cytokines
Description: Microdialysis probes (CMA-20) with a 10 mm polyethersulfone membrane (100 kDa MWCO) were purchased from CMA Microdialysis (Acton Mass.) and were used as received. For control experiments, the perfusion fluid contained the assay diluent from the BD Pharmingen kit. To enhance the transport of cytokines during the microdialysis sampling process, 5 μl of bead solution for each target analyte was combined and diluted to 250 μl with the assay diluent. […] Greater than 200 μl of fluid was allowed to pass through the microdialysis probe that was immersed into a standard containing 5000 pg/ml of IL-2, IL-4, IL-5, IFN-gamma, and TNF-alpha. After sample collection, the dialysates containing microspheres were reconstituted in 25 μl of assay diluent. Microspheres with coupled target analyte were then incubated with 25 μl phycoerythrin detection reagent for 2 hours and washed briefly prior to flow cytometric analysis.
The dialysate samples were analyzed using a BD FACScan flow cytometer with the appropriate BD Biosciences software for this analysis.
Different cytokines (e.g., mouse IL-2 (15 kD), IL-4 (20-25 kD), and TNF-α ([…])) have been successfully measured across microdialysis probes (CMA-20, 10 mm, polyethersulfone membrane, MWCO 100 kD) in a quiescent solution using a multiplexed cytokine bead array assay (BD Pharmingen). TNF-α has the largest molecular weight of the cytokines targeted for analysis in this example (Thorpe et al., “Detection and Measurement of Cytokines,” Blood Rev. 6:133-48 (1992), which is hereby incorporated by reference in its entirety). Only 25 μl of sample was needed to simultaneously measure all three of these cytokines in solution using the multiplexed bead array (Carson et al., “Simultaneous Quantitation of 15 Cytokines Using a Multiplexed Flow Cytometric Assay,” J. Immunol. Methods 227:41-52 (1999), which is hereby incorporated by reference in its entirety). […]

Row | Molecule | microdialysis Ed (extraction efficiency)
1 | IL-4: mouse cytokine, 20-25 kD; target analyte of microdialysis sampling | 0.9±0.3%
2 | TNF-α | 1.5±0.5%
3 | IL-2: mouse cytokine, 15 kD; target analyte of microdialysis sampling (protein, UniProt P04351 21-169, looked up) Interleukin-2: APTSSSTSSSTAEAQQQQQQQQQQQQHLEQLLMDLQELLSRMENYRNLKLPRMLTFKFYLPKQATELKDLQCLEDELGPLRHVLDLTQSKSFQLEDAENFISNIRVTVVKLKGSDNTFECQFDDESATVVDFLRRWIAFCQSIISTSPQ | 1.1±0.3%
